Experimental data reported in US20180085469A1.
Values belong to the molecule of their own block, whether it stands above or below them.

Legend:
[1] = target: CD74 (invariant chain, Ii) (human) (UniProt P04233); assay: flow cytometry, surface and cytoplasmic (permeabilized), HuH-7 cells
[2] = target: CD74 (invariant chain, Ii) (human) (UniProt P04233); assay: flow cytometry, surface and cytoplasmic (permeabilized), HuH-7 cells; ratio to background
[3] = target: CD74 (invariant chain, Ii) (human) (UniProt P04233); assay: flow cytometry, surface and cytoplasmic (permeabilized), Raji cells; ratio to background
[4] = target: CD74 (invariant chain, Ii) (human) (UniProt P04233); assay: flow cytometry, surface and cytoplasmic (permeabilized), Raji cells
[5] = target: CD74 (invariant chain, Ii) (human) (UniProt P04233); assay: flow cytometry, surface, Hep-G2 cells, GAH-FITC detection
[6] = target: CD74 (invariant chain, Ii) (human) (UniProt P04233); assay: flow cytometry, surface, Capan-1 cells; ratio to background (GAH-FITC only)
[7] = target: CD74 (invariant chain, Ii) (human) (UniProt P04233); assay: flow cytometry, surface, A-375 cells, GAH-FITC detection
[8] = target: CD74 (invariant chain, Ii) (human) (UniProt P04233); assay: flow cytometry, surface, NCI-N87 cells; ratio to background (GAH-FITC only)
[9] = target: CD74 (invariant chain, Ii) (human) (UniProt P04233); assay: flow cytometry, surface, Hs746T cells, GAH-FITC detection
[10] = target: CD74 (invariant chain, Ii) (human) (UniProt P04233); assay: flow cytometry, surface and cytoplasmic (permeabilized), Capan-1 cells
[11] = target: CD74 (invariant chain, Ii) (human) (UniProt P04233); assay: flow cytometry, surface and cytoplasmic (permeabilized), NCI-N87 cells
[12] = target: CD74 (invariant chain, Ii) (human) (UniProt P04233); assay: flow cytometry, surface and cytoplasmic (permeabilized), Hs746T cells
[13] = target: CD74 (invariant chain, Ii) (human) (UniProt P04233); assay: flow cytometry, surface, Hs746T cells; ratio to background (GAH-FITC only)
[14] = target: CD74 (invariant chain, Ii) (human) (UniProt P04233); assay: flow cytometry, surface, HuH-7 cells; ratio to background (GAH-FITC only)
[15] = target: CD74 (invariant chain, Ii) (human) (UniProt P04233); assay: flow cytometry, surface and cytoplasmic (permeabilized), A-375 cells; ratio to background
[16] = target: CD74 (invariant chain, Ii) (human) (UniProt P04233); assay: flow cytometry, surface, A-375 cells; ratio to background (GAH-FITC only)
[17] = target: CD74 (invariant chain, Ii) (human) (UniProt P04233); assay: flow cytometry, surface and cytoplasmic (permeabilized), A-375 cells
[18] = target: CD74 (invariant chain, Ii) (human) (UniProt P04233); assay: flow cytometry, surface and cytoplasmic (permeabilized), Hs746T cells; ratio to background
[19] = target: CD74 (invariant chain, Ii) (human) (UniProt P04233); assay: flow cytometry, surface, Hep-G2 cells; ratio to background (GAH-FITC only)
[20] = target: CD74 (invariant chain, Ii) (human) (UniProt P04233); assay: flow cytometry, surface, Raji cells; ratio to background (GAH-FITC only)
[21] = target: CD74 (invariant chain, Ii) (human) (UniProt P04233); assay: flow cytometry, surface, NCI-N87 cells, GAH-FITC detection
[22] = target: CD74 (invariant chain, Ii) (human) (UniProt P04233); assay: cell binding assay on antigen-positive cells
[23] = target: CD74 (invariant chain, Ii) (human) (UniProt P04233); assay: flow cytometry, surface and cytoplasmic (permeabilized), Hep-G2 cells
[24] = target: CD74 (invariant chain, Ii) (human) (UniProt P04233); assay: flow cytometry, surface and cytoplasmic (permeabilized), Capan-1 cells; ratio to background
[25] = target: CD74 (invariant chain, Ii) (human) (UniProt P04233); assay: flow cytometry, surface and cytoplasmic (permeabilized), NCI-N87 cells; ratio to background
[26] = target: CD74 (invariant chain, Ii) (human) (UniProt P04233); assay: flow cytometry, surface and cytoplasmic (permeabilized), Hep-G2 cells; ratio to background
[27] = target: CD74 (invariant chain, Ii) (human) (UniProt P04233); assay: flow cytometry, surface, HuH-7 cells, GAH-FITC detection
[28] = target: CD74 (invariant chain, Ii) (human) (UniProt P04233); assay: flow cytometry, surface, Raji cells, GAH-FITC detection
[29] = target: CD74 (invariant chain, Ii) (human) (UniProt P04233); assay: flow cytometry, surface, Capan-1 cells, GAH-FITC detection
[30] = target: Human trophoblast cell-surface antigen (TROP-2) (human) (UniProt P09758); assay: flow cytometry, surface, NCI-N87 cells
[31] = target: Human trophoblast cell-surface antigen (TROP-2) (human) (UniProt P09758); assay: flow cytometry, surface, Capan-1 cells
[32] = target: CD22 (human) (UniProt P20273); assay: flow cytometry, Daudi cells, FITC goat anti-human IgG detection
[33] = target: CD22 (human) (UniProt P20273); assay: flow cytometry, Jeko-1 cells, FITC goat anti-human IgG detection
[34] = target: CD22 (human) (UniProt P20273); assay: flow cytometry, RS4;11 cells, FITC goat anti-human IgG detection
[35] = target: CD22 (human) (UniProt P20273); assay: flow cytometry, Raji cells, FITC goat anti-human IgG detection
[36] = target: CD22 (human) (UniProt P20273); assay: flow cytometry, 697 cells, FITC goat anti-human IgG detection
[37] = target: CD22 (human) (UniProt P20273); assay: flow cytometry, REH cells, FITC goat anti-human IgG detection
[38] = target: CD22 (human) (UniProt P20273); assay: flow cytometry, MN-60 cells, FITC goat anti-human IgG detection
[39] = target: CD22 (human) (UniProt P20273); assay: flow cytometry, WSU-FSCCL cells, FITC goat anti-human IgG detection
[40] = target: CD22 (human) (UniProt P20273); assay: flow cytometry, Ramos cells, FITC goat anti-human IgG detection
[41] = target: T1, CD20 (human) (UniProt P11836); assay: flow cytometry, Daudi cells, FITC goat anti-human IgG detection
T1 sequence (looked up): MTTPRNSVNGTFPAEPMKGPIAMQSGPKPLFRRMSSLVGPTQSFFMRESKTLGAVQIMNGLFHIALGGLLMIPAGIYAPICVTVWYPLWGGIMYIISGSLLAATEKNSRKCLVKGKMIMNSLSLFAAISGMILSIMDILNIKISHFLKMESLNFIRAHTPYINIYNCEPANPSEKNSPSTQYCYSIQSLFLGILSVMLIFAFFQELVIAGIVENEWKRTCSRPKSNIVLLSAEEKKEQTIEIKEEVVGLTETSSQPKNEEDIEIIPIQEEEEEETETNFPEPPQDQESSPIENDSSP

[42] = target: T1, CD20 (human); assay: flow cytometry, Jeko-1 cells, FITC goat anti-human IgG detection
[43] = target: T1, CD20 (human); assay: flow cytometry, Raji cells, FITC goat anti-human IgG detection
[44] = target: T1, CD20 (human); assay: flow cytometry, 697 cells, FITC goat anti-human IgG detection
[45] = target: T1, CD20 (human); assay: flow cytometry, RS4;11 cells, FITC goat anti-human IgG detection (background 4.1)
[46] = target: T1, CD20 (human); assay: flow cytometry, REH cells, FITC goat anti-human IgG detection
[47] = target: T1, CD20 (human); assay: flow cytometry, MN-60 cells, FITC goat anti-human IgG detection
[48] = target: T1, CD20 (human); assay: flow cytometry, WSU-FSCCL cells, FITC goat anti-human IgG detection
[49] = target: T1, CD20 (human); assay: flow cytometry, Ramos cells, FITC goat anti-human IgG detection
[50] = target: CEACAM6 (human) (UniProt P40199); assay: flow cytometry, surface, NCI-N87 cells
[51] = target: CEACAM6 (human) (UniProt P40199); assay: flow cytometry, surface, HuH-7 cells
[52] = target: CEACAM6 (human) (UniProt P40199); assay: flow cytometry, surface, Hep-G2 cells

Sequence of CD74 (invariant chain, Ii) (human) (P04233 whole entry, change not shown): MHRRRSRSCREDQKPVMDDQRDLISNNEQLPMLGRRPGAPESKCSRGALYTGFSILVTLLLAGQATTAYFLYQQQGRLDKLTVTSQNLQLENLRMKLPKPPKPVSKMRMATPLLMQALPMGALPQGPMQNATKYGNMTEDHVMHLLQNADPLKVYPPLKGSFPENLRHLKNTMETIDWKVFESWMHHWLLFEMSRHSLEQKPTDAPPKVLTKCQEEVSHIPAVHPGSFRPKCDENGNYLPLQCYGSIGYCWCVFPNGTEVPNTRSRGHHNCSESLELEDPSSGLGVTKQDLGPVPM
Sequence of CEACAM6 (human) (P40199 35-320): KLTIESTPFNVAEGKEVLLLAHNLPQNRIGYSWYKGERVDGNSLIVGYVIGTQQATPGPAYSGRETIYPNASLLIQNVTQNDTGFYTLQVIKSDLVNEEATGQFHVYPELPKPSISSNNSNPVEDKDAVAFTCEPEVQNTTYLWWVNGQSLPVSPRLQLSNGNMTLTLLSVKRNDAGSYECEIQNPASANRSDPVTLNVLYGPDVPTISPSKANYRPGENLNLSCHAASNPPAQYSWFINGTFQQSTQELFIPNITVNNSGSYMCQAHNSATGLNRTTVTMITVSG
Sequence of Human trophoblast cell-surface antigen (TROP-2) (human) (P09758 27-323): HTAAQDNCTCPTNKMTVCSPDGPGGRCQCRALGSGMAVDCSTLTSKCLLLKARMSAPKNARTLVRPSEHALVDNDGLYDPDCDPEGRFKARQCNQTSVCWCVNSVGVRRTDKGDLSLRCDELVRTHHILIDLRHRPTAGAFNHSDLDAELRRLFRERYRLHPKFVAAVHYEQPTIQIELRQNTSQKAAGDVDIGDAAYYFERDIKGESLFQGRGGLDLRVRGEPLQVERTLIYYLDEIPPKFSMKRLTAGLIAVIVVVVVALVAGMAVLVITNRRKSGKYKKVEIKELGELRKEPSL

Molecule: milatuzumab (hLL1), humanized anti-CD74 antibody
- MFI [1]: 114
- MFI Ratio hLL1:bkgd [2]: 28.5
- MFI Ratio hLL1:bkgd [3]: 28.6
- MFI [4]: 143
- MFI [5]: 9
- MFI Ratio hLL1:bkgd [6]: 1.8
- MFI [7]: 16
- MFI Ratio hLL1:bkgd [8]: 1.3
- MFI [9]: 17
- MFI [10]: 248
- MFI [11]: 220
- MFI [12]: 144
- MFI Ratio hLL1:bkgd [13]: 2.1
- MFI Ratio hLL1:bkgd [14]: 1.6
- MFI Ratio hLL1:bkgd [15]: 30.8
- MFI Ratio hLL1:bkgd [16]: 5.3
- MFI [17]: 185
- MFI Ratio hLL1:bkgd [18]: 28.8
- MFI Ratio hLL1:bkgd [19]: 1.5
- MFI Ratio hLL1:bkgd [20]: 19.6
- MFI [21]: 5
- Kd [22]: 0.77 nM
- MFI [23]: 156
- MFI Ratio hLL1:bkgd [24]: 49.6
- MFI Ratio hLL1:bkgd [25]: 36.7
- MFI Ratio hLL1:bkgd [26]: 31.2
- MFI [27]: 8
- MFI [28]: 59
- MFI [29]: 22

Molecule: humanized RS7 IgG (hRS7), anti-TROP-2 humanized antibody
- MFI [30]: 795
- MFI [31]: 237

B2: hMN-15, humanized anti-CEACAM6 antibody (antibody, from a related filing, IgG1, V domains shown)
VH: QVQLVESGGGVVQPGRSLRLSCSSSGFALTDYYMSWVRQAPGKGLEWLGFIANKANGHTTDYSPSVKGRFTISRDNSKNTLFLQMDSLRPEDTGVYFCARDMGIRWNFDVWGQGTPVTVSS
VL: DIQLTQSPSSLSASVGDRVTMTCSASSRVSYIHWYQQKPGKAPKRWIYGTSTLASGVPARFSGSGSGTDFTFTISSLQPEDIATYYCQQWSYNPPTFGQGTKVEIKR
- MFI [50]: 1120
- MFI [51]: 81
- MFI [52]: 175

Continued, values first:

- Median fluorescence [32]: 145
- Median fluorescence [33]: 11.2
- Median fluorescence [34]: 23.3
- Median fluorescence [35]: 45.9
- Median fluorescence [36]: 16
- Median fluorescence [37]: 22.9
- Median fluorescence [38]: 10.3
- Median fluorescence [39]: 7.7
- Median fluorescence [40]: 40.8
Molecule: epratuzumab (hLL2), humanized anti-CD22 IgG1 (antibody)

- Median fluorescence [41]: 815
- Median fluorescence [42]: 605
- Median fluorescence [43]: 422
- Median fluorescence [44]: 6.9
- Median fluorescence [45]: 3.7
- Median fluorescence [46]: 12.3
- Median fluorescence [47]: 21.5
- Median fluorescence [48]: 97.4
- Median fluorescence [49]: 620
B1: veltuzumab (hA20), humanized anti-CD20 IgG1 (antibody, from a related filing, V domains shown, part only)
VH: QVQLQQSGAEVKKPGSSVKVSCKASGYTFTSYNMHWVKQAPGQGLEWIGAIYPGNGDTSYNQKFKGKATLTADESTNTAYMELSSLRSEDTAFYYCARSTYYGGDWYFDVWGQGTTVTVSS
VL: DIQLTQSPSSLSASVGDRVTMTCRASSSVSYIHWFQQKPGKAPKPWIYATSNLASGVPVRFSGSGSGTDYTFTISSLQPEDIATYYCQQWTSNPPTFGGGTKLEIK
